Key:
[1] = biological target: T1, β:T238A yeast microtubules (polymerized Tub2:T238A αβ-tubulin) (S. cerevisiae, UniProt P09733 1-447; P02557 1-457, T238A); assay: TIRF microscopy of Stu2-eGFP on dynamic microtubules (kymographs); axoneme-seeded unlabeled dynamic yeast microtubules on the cover slip; Stu2-eGFP variant (100-200 nM) with 0.5-0.8 μM unpolymerized yeast tubulin in imaging buffer (1X PEM, 50 µM GTP, 0.1 mg/mL BSA, antifade); 30°C; conditions: both partners purified
T1 construct: Tub1p (yeast α-tubulin), S. cerevisiae; Tub2p (yeast β-tubulin), S. cerevisiae; also called β:T238A microtubules; mutant microtubules

[2] = biological target: T2, wild-type yeast microtubules (polymerized wild-type yeast αβ-tubulin) (S. cerevisiae, UniProt P09733 1-447; P02557 1-457); assay: TIRF microscopy, fluorescence intensity of the Stu2-eGFP spot on the growing microtubule end; end intensity dynamic assay; 5-300 nM Stu2-eGFP (titration, hyperbolic fit; apparent) or 200 nM variant; 0.8 μM wild-type yeast tubulin; 30°C; conditions: both partners purified
T2 construct: Tub1p (yeast α-tubulin), S. cerevisiae; Tub2p (yeast β-tubulin), S. cerevisiae; Polymer of m2; also called microtubule lattice; microtubule end

[3] = biological target: the molecule itself; assay: single-molecule photobleaching (TIRF); fluorescence intensity trace of stationary Stu2-eGFP; steps of photobleaching counted
[4] = biological target: T2, wild-type yeast microtubules …; assay: single-molecule TIRF microscopy, residence time on the growing microtubule end; 5 nM Stu2-eGFP variant with 1-1.5 µM unlabeled wild-type yeast tubulin; 100 ms streaming; one-phase exponential fit of the dwell times; 30°C; conditions: both partners purified
[5] = biological target: T3, plus-end blocked yeast αβ-tubulin (β:T175R,V179R) (S. cerevisiae, UniProt P09733 1-447; P02557 1-457, T175R | V179R); assay: TIRF microscopy of Stu2-eGFP on stabilized microtubules; GTPγS-stabilized wild-type yeast microtubules held on the cover slip by His-Tag antibody; 100 nM Stu2-eGFP flowed in without or with 1 μM unpolymerized tubulin (wild type or mutant; mixed on ice for 10 min); imaging buffer; 30°C; conditions: both partners purified
T3 construct: Tub1p (yeast α-tubulin), S. cerevisiae; Tub2p (yeast β-tubulin), S. cerevisiae; also called LR1

[6] = biological target: T4, minus-end blocked yeast αβ-tubulin (α:T350E) (S. cerevisiae, UniProt P09733 1-447; P02557 1-457, T350E); assay: as above; conditions: both partners purified
T4 construct: Tub1p (yeast α-tubulin), S. cerevisiae; Tub2p (yeast β-tubulin), S. cerevisiae; also called T350E α-tubulin

[7] = biological target: T5, side-blocked yeast αβ-tubulin (β:F281A) (S. cerevisiae, UniProt P09733 1-447; P02557 1-457, F281A); assay: SEC; gel filtration on Shodex KW-803 in BRB80 (80 mM PIPES pH 6.9, 1 mM MgCl2, 1 mM EGTA) with 50 μM GTP; 1 μM TOG1-tail and 1 μM tubulin, alone or mixed, equilibrated on ice for 20 min; conditions: both partners purified
T5 construct: Tub1p (yeast α-tubulin), S. cerevisiae; Tub2p (yeast β-tubulin), S. cerevisiae; also called Tub2:F281A

[8] = biological target: T6, wild-type yeast αβ-tubulin (unpolymerized) (S. cerevisiae, UniProt P09733 1-447; P02557 1-457); assay: as above; conditions: both partners purified
T6 construct: Tub1p (yeast α-tubulin), S. cerevisiae; Tub2p (yeast β-tubulin), S. cerevisiae; also called WT tubulin; unpolymerized tubulin

[9] = biological target: T7, lateral-interface mutant yeast αβ-tubulin (α:H284A) (S. cerevisiae, UniProt P09733 1-447; P02557 1-457, H284A); assay: as above; conditions: both partners purified
T7 construct: Tub1p (yeast α-tubulin), S. cerevisiae; Tub2p (yeast β-tubulin), S. cerevisiae; also called Tub1-H284A; Tub1:H284A

[10] = biological target: T3, plus-end blocked yeast αβ-tubulin …; assay: AUC; sedimentation velocity, 50,000 rpm, 20°C, absorbance at 229 nm; RB100 (25 mM Tris pH 7.5, 100 mM NaCl, 1 mM MgCl2, 1 mM EGTA) with 20 µM GTP; 0.3 µM tubulin with 0.1-3 µM TOG1-tail; isotherms fitted with a 1:1 effective-particle model; conditions: both partners purified

binding result [1]	EC50 [2]	characteristic residence time on the growing microtubule end [4]	binding result [5]	binding result [6]	binding result [7]	binding result [8]	binding result [9]	binding result [10]	Binder	stoichiometry N [3]
binds	19 nM	2.2 s	binds	binds					wild-type Stu2-eGFP (Stu2 residues 1–888, full-length; dimer) (natural protein, S. cerevisiae, UniProt P46675 1-888, looked up, Stu2 (Stu2p), S. cerevisiae, residues 1-888; also called Stu2p; WT; source: E. coli Arctic Express, purified (His60 Superflow, Strep-Tactin); not shown: eGFP, C-terminal, kept) MSGEEEVDYTTLPLEERLTYKLWKARLEAYKELNQLFRNSVGDISRDDNIQIYWRDPTLFAQYITDSNVVAQEQAIVALNSLIDAFASSSLKNAHNITLISTWTPLLVEKGLTSSRATTKTQSMSCILSLCGLDTSITQSVELVIPFFEKKLPKLIAAAANCVYELMAAFGLTNVNVQTFLPELLKHVPQLAGHGDRNVRSQTMNLIVEIYKVTGNNSDLLEEILFKKLKPIQVKDLHKLFAKVGDEPSSSKMLFEWEKRELEKKRSQEEEARKRKSILSNDEGEYQIDKDGDTLMGMETDMPPSKQQSGVQIDTFSMLPEETILDKLPKDFQERITSSKWKDRVEALEEFWDSVLSQTKKLKSTSQNYSNLLGIYGHIIQKDANIQAVALAAQSVELICDKLKTPGFSKDYVSLVFTPLLDRTKEKKPSVIEAIRKALLTICKYYDPLASSGRNEDMLKDILEHMKHKTPQIRMECTQLFNASMKEEKDGYSTLQRYLKDEVVPIVIQIVNDTQPAIRTIGFESFAILIKIFGMNTFVKTLEHLDNLKRKKIEETVKTLPNFSIASGSTHSTIETNKQTGPMENKFLLKKSSVLPSKRVASSPLRNDNKSKVNPIGSVASASKPSMVAANNKSRVLLTSKSLATPKNVVANSTDKNEKLIEEYKYRLQKLQNDEMIWTKERQSLLEKMNNTENYKIEMIKENEMLREQLKEAQSKLNEKNIQLRSKEIDVNKLSDRVLSLENELRNMEIELDRNKKRNDTNLQSMGTISSYSIPSSTVSSNYGVKSLSSALPFKEEEDVRRKEDVNYERRSSESIGDLPHRVNSLNIRPYRKNGTGVSSVSDDLDIDFNDSFASEESYKRAAAVTSTLKARIEKMKAKSRREGTTRT	2
					binds	binds	binds	binds	Stu2 TOG1 domain ('TOG1-tail', 1–317) (domain or fragment, S. cerevisiae, UniProt P46675 1-317, looked up, Stu2 (Stu2p), S. cerevisiae, TOG1 domain with tail, residues 1-317; source: expression and purification previously described (Ayaz et al., 2012, 2014)) MSGEEEVDYTTLPLEERLTYKLWKARLEAYKELNQLFRNSVGDISRDDNIQIYWRDPTLFAQYITDSNVVAQEQAIVALNSLIDAFASSSLKNAHNITLISTWTPLLVEKGLTSSRATTKTQSMSCILSLCGLDTSITQSVELVIPFFEKKLPKLIAAAANCVYELMAAFGLTNVNVQTFLPELLKHVPQLAGHGDRNVRSQTMNLIVEIYKVTGNNSDLLEEILFKKLKPIQVKDLHKLFAKVGDEPSSSKMLFEWEKRELEKKRSQEEEARKRKSILSNDEGEYQIDKDGDTLMGMETDMPPSKQQSGVQIDTFS	
